Assay results as given in patent US20230212319A1, “NOVEL ANTIGEN BINDING DOMAINS AND SYNTHETIC ANTIGEN RECEPTORS INCORPORATING THE SAME” (University of Southern California, priority 2020, published 2023).

B1: 22058 (protein)
chain: MALPVTALLLPLALLLHAARPQLQLQESGPGLVKPSETLSLTCTVSGDSISSGDYYWGWIRQPPGKGLEWIGHIYYSGVTYYNPSLKSRVTISVDTSRNQFSLKLSSVTAADTAVYYCTREDSSNWRSRGQGTLVTVSSLEDLKNVFPPEVAVFEPSEAEISHTQKATLVCLATGFYPDHVELSWWVNGKEVHSGVCTDPQPLKEQPALNDSRYCLSSRLRVSATFWQNPRNHFRCQVQFYGLSENDEWTQDRAKPVTQIVSAEAWGRADCGFTSESYQQGVLSATILYEILLGKATLYAVLVSALVLMAMVKRKDSRGRAKRSGSGATNFSLLKQAGDVEENPGPTSMDWIWRILFLVGAATGAHSFEVQLVESGGGVVQPGRSLRLSCAASGFSFSGYGMHWVRQAPGKGLEWVAYISYDGSNKYYADSVKGRFTISRDNSKNTLYLQMNSLRAEDTAVYYCAKDPAWGLRLGESSSYDFDIWGQGTMVTVSSTRIQNPDPAVYQLRDSKSSDKSVCLFTDFDSQTNVSQSKDSDVYITDKCVLDMRSMDFKSNSAVAWSNKSDFACANAFNNSIIPEDTFFPSPESSCDVKLVEKSFETDTNLNFQNLSVIGFRILLLKVAGFNLLMTLRLWSSRAKRSGSGVKQTLNFDLLKLAGDVESNPGPSRGHMTEYKPTVRLATRDDVPRAVRTLAAAFADYPATRHTVDPDRHIERVTELQELFLTRVGLDIGKVWVADDGAAVAVWTTPESVEAGAVFAEIGPRMAELSGSRLAAQQQMEGLLAPHRPKEPAWFLATVGVSPDHQGKGLGSAVVLPGVEAAERAGVPAFLETSAPRNLPFYERLGFTVTADVEVPEGPRTWCMTRKPGA
B2: SEQ ID NO: 22294: RZIP domain attached directly to truncated TCR chain [hTCRb-wt-opt2-6MD] with a short GS linker, without Ig or long linker (protein)
chain: MALPVTALLLPLALLLHAARPQLQLQESGPGLVKPSETLSLTCTVSGDSISSGDYYWGWIRQPPGKGLEWIGHIYYSGVTYYNPSLKSRVTISVDTSRNQFSLKLSSVTAADTAVYYCTREDSSNWRSRGQGTLVTVSSLEGSIPEDTFFPSPESSCDVKLVEKSFETDTNLNFQNLSVIGFRILLLKVAGFNLLMTLRLWSSRAKRSGSGVKQTLNFDLLKLAGDVESNPGPTSATMDWIWRILFLVGAATGAHSEFMDPDLEIRAAFLRQRNTALRTEVAELEQEVQRLENEVSQYETRYGPLGGGKTRGSGRADCGFTSESYQQGVLSATILYEILLGKATLYAVLVSALVLMAMVKRKDSRGRAKRSGSGATNFSLLKQAGDVEENPGPSRGHMTEYKPTVRLATRDDVPRAVRTLAAAFADYPATRHTVDPDRHIERVTELQELFLTRVGLDIGKVWVADDGAAVAVWTTPESVEAGAVFAEIGPRMAELSGSRLAAQQQMEGLLAPHRPKEPAWFLATVGVSPDHQGKGLGSAVVLPGVEAAERAGVPAFLETSAPRNLPFYERLGFTVTADVEVPEGPRTWCMTRKPGA
B3: SEQ ID NO: 22293: bispecific CD19xCD20 SAR with RZIP leucine zipper domain on hu-mR005-1 vL and CD20-VHH-USC1-2HCD26 on the vH domain (protein)
chain: MALPVTALLLPLALLLHAARPACMDPDLEIRAAFLRQRNTALRTEVAELEQEVQRLENEVSQYETRYGPLGGGKGTGGGGSGGGGSGGGGSEFDIQMTQSPSSLSASVGDRVTITCKASDHINNWLAWYQQKPGQAPKLLIYGATTLETGVPSRFSGSGSGTDYTLTISSLQPEDFATYYCQQSWNTPWTFGQGTKLEIKRLEDLKNVFPPEVAVFEPSEAEISHTQKATLVCLATGFYPDHVELSWWVNGKEVHSGVCTDPQPLKEQPALNDSRYCLSSRLRVSATFWQNPRNHFRCQVQFYGLSENDEWTQDRAKPVTQIVSAEAWGRADCGFTSESYQQGVLSATILYEILLGKATLYAVLVSALVLMAMVKRKDSRGRAKRSGSGATNFSLLKQAGDVEENPGPTSATMDWIWRILFLVGAATGAHSGPEVQLVESGGGLVQAGGSLRLSCAASGRTFSMGWFRQAPGKEREFVAAITYSGGSPYYADSVKGRFTISRDNAKNTVYLQMNSLKPEDTAVYYCAANPTYGSDWNAENWGQGTQVTVSSGSGGGGSGGGGSGGGGSFEQVQLQQPGAELVKPGASVKMSCKASGYAFSSYWINWMKQKPGQGLEWIGQIYPGDGDTNYNGKFKGRATLTADTSSSTAYMQLSSLTSEDSAVYFCARSITTVVGCAMDYWGQGTSVTVSSTRIQNPDPAVYQLRDSKSSDKSVCLFTDFDSQTNVSQSKDSDVYITDKCVLDMRSMDFKSNSAVAWSNKSDFACANAFNNSIIPEDTFFPSPESSCDVKLVEKSFETDTNLNFQNLSVIGFRILLLKVAGFNLLMTLRLWSSRAKRSGSGVKQTLNFDLLKLAGDVESNPGPSRGHMTEYKPTVRLATRDDVPRAVRTLAAAFADYPATRHTVDPDRHIERVTELQELFLTRVGLDIGKVWVADDGAAVAVWTTPESVEAGAVFAEIGPRMAELSGSRLAAQQQMEGLLAPHRPKEPAWFLATVGVSPDHQGKGLGSAVVLPGVEAAERAGVPAFLETSAPRNLPFYERLGFTVTADVEVPEGPRTWCMTRKPGA
B4: 22286 (protein)
chain: MALPVTALLLPLALLLHAARPACLFNQEVQIPLTESYCGPCPKNWICYKNNCYQFFDESKNWYESQASCMSQNASLLKVYSKEDQDLLKLVKSAHWMGLVHIPTNGSWQWEDGSILSPNLLTIIEMQKGDCALYASSFKGYIENCSTPNTYICMQRTVLEGQPKANPTVTLFPPSSEELQANKATLVCLISDFYPGAVTVAWKADGSPVKAGVETTKPSKQSNNKYAASSYLSLTPEQWKSHRSYSCQVTHEGSTVEKTVAPTECSPIKTDVITMDPKDNCSKDANDTLLLQLTNTSAYYMYLLLLLKSVVYFAIITCCLLRRTAFCCNGEKSRAKRSGSGATNFSLLKQAGDVEENPGPTSATMDWIWRILFLVGAATGAHSGPQVQLQESGGGLAQAGGSLRLSCAASGRTFSMGWFRQAPGKEREFVAAITYSGGSPYYASSVRGRFTISRDNAKNTVYLQMNSLKPEDTAVYYCAANPTYGSDWNAENWGQGTQVTVSSGSGGGGSGGGGSGGGGSFEQVQLQQPGAELVKPGASVKMSCKASGYAFSSYWINWMKQKPGQGLEWIGQIYPGDGDTNYNGKFKGRATLTADTSSSTAYMQLSSLTSEDSAVYFCARSITTVVGCAMDYWGQGTSVTVSSTRASTKGPSVFPLAPSSKSTSGGTAALGCLVKDYFPEPVTVSWNSGALTSGVHTFPAVLQSSGLYSLSSVVTVPSSSLGTQTYICNVNHKPSNTKVDKRVEPKSCEVKTDSTDHVKPKETENTKQPSKSCHKPKAIVHTEKVNMMSLTVLGLRMLFAKTVAVNFLLTAKLFFLRAKRSGSGVKQTLNFDLLKLAGDVESNPGPSRGHMTEYKPTVRLATRDDVPRAVRTLAAAFADYPATRHTVDPDRHIERVTELQELFLTRVGLDIGKVWVADDGAAVAVWTTPESVEAGAVFAEIGPRMAELSGSRLAAQQQMEGLLAPHRPKEPAWFLATVGVSPDHQGKGLGSAVVLPGVEAAERAGVPAFLETSAPRNLPFYERLGFTVTADVEVPEGPRTWCMTRKPGA
B5: 22288 (protein)
chain: MALPVTALLLPLALLLHAARPACLFNQEVQIPLTESYCGPCPKNWICYKNNCYQFFDESKNWYESQASCMSQNASLLKVYSKEDQDLLKLVKSAHWMGLVHIPTNGSWQWEDGSILSPNLLTIIEMQKGDCALYASSFKGYIENCSTPNTYICMQRTVLEGQPKANPTVTLFPPSSEELQANKATLVCLISDFYPGAVTVAWKADGSPVKAGVETTKPSKQSNNKYAASSYLSLTPEQWKSHRSYSCQVTHEGSTVEKTVAPTECSPIKTDVITMDPKDNCSKDANDTLLLQLTNTSAYYMYLLLLLKSVVYFAIITCCLLRRTAFCCNGEKSRAKRSGSGATNFSLLKQAGDVEENPGPTSATMDWIWRILFLVGAATGAHSGPQVQLQESGGGLAQAGGSLRLSCAASGRTFSMGWFRQAPGKEREFVAAITYSGGSPYYASSVRGRFTISRDNAKNTVYLQMNSLKPEDTAVYYCAANPTYGSDWNAENWGQGTQVTVSSGSGGGGSGGGGSGGGGSFEDLFNQEVQIPLTESYCGPCPKNWICYKNNCYQFFDESKNWYESQASCMSQNASLLKVYSKEDQDLLKLVKSAHWMGLVHIPTNGSWQWEDGSILSPNLLTIIEMQKGDCALYASSFKGFIENCSTPNTYICMQRTVTRASTKGPSVFPLAPSSKSTSGGTAALGCLVKDYFPEPVTVSWNSGALTSGVHTFPAVLQSSGLYSLSSVVTVPSSSLGTQTYICNVNHKPSNTKVDKRVEPKSCEVKTDSTDHVKPKETENTKQPSKSCHKPKAIVHTEKVNMMSLTVLGLRMLFAKTVAVNFLLTAKLFFLRAKRSGSGVKQTLNFDLLKLAGDVESNPGPSRGHMTEYKPTVRLATRDDVPRAVRTLAAAFADYPATRHTVDPDRHIERVTELQELFLTRVGLDIGKVWVADDGAAVAVWTTPESVEAGAVFAEIGPRMAELSGSRLAAQQQMEGLLAPHRPKEPAWFLATVGVSPDHQGKGLGSAVVLPGVEAAERAGVPAFLETSAPRNLPFYERLGFTVTADVEVPEGPRTWCMTRKPGA

Columns and labels:
Format in all cases: cell-based
[1] = tested on: LNCaP cells; test: JNG assay, co-culture with LNCaP cells; conditions: for redirection to LNCaP cells: LNCaP (PSMA+) cells in the presence of SAR adaptor CD8SP-PSMA-USC76-chVH-EZIP (SEQ ID NO: 23118); for NFAT-GFP ASSAY: LNCaP with PSMA-USC76-chVH-G4S-ULBP2-S3: LNCaP in presence of SAR adaptor PSMA-USC76-chVH-G4S-ULBP2-S3
Procedure, shortened: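 GFP expression induced through the NFAT pathway was monitored by FACS once SAR-bearing Jurkat reporters had been cultured with target cells at an approximate 1:2 ratio for 4 to 18 hours; parental reporter cells served as the baseline.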

[2] = tested on: RAJI cells; test: JNG assay, co-culture with RAJI cells; conditions: JNG cells expressing construct, co-culture with Raji
Procedure, shortened: (§1)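 Read-out is NFAT-driven GFP measured by flow cytometry after ~4–18 h co-culture of SAR-expressing JNG cells with target cells (E:T about 1:2). SARs were introduced by lentiviral spinfection and selected with puromycin or blasticidin when possible; scores (+/- to 5+ ≈ 5–50% GFP+) are relative to parental JNG cells.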

[3] = tested on: L363 cells; test: JNG assay, co-culture with L363 cells; conditions: L363 cells (BCMA+), only in the presence of SAR adaptor BCMA-FHVH-74-EZIP (SEQ ID NO: 23119)
Procedure, shortened: as §1

Molecule | NFAT-GFP ASSAY: LNCaP ([1]; co-culture with LNCaP) | NFAT-GFP ASSAY: Raji [2] | GFP induction [3] | redirection to LNCaP cells [1] | NFAT-GFP ASSAY: LNCaP with PSMA-USC76-chVH-G4S-ULBP2-S3 [1]
B1 | + (refer to approximately 5%, 10%, 20%, 30%, 40% and 50% GFP positive cells) | +/- (refer to approximately 5%, 10%, 20%, 30%, 40% and 50% GFP positive cells) |  |  | 
B2 |  |  | Weaker results | Weaker results | 
B3 |  |  | robust induction of GFP | could be redirected | 
B4 |  | + (refer to approximately 5%, 10%, 20%, 30%, 40% and 50% GFP positive cells) |  |  | + (refer to approximately 5%, 10%, 20%, 30%, 40% and 50% GFP positive cells)
B5 |  | 3+ (refer to approximately 5%, 10%, 20%, 30%, 40% and 50% GFP positive cells) |  |  | + (refer to approximately 5%, 10%, 20%, 30%, 40% and 50% GFP positive cells)
